Assay: label from the status in PepcDB records

Sequence | protein production
MNIRPAATLVLTRDTDNGIEVLLLQRTWEAVFLPGYYVFPGGAVNAQEPEGRAHVVGVEDADISQTMSLDEGGADYMLAAVRECFEEAGILLAQDASGQLIGADHGVHSERMALFQEEISLAQLCAKHGLTVPLDRLAYLSHWVTPPGPPRRFDTRFFVAVAPEGQVASHDGTETIDHVWIAPAQALEEHRAGARLLGLPTIRTLRVLSEFGTTGEMMRYAHANPPEAFPDQPWPAVRKGKPVMLEPNAPAYDEAVKLDPEGEGSTRAEIVPGEPVEVAAGVIRLTAPNPGMMTGPGTNTYILGHERFTVLDPGPANEAHIERILELTGGVVDQVVVTHTHMDHSPAVAQLKARTGCRVFGWPAPEGAGQDQGFTPDDQPGHEDLIVTEAGILKVLHTPGHASNHLCYLLLDQELLFSGDHIMQGSTVVINPPDGDMKAYIDSMYDLLAEPVRFIAPAHGFLMGQPAAVMDYLITHRLSREHKVWRALEALAPVSLKDLTARAYDDVPAAIHGLAARSALAHLLKLEAEHRAFADDGLWQVVAPD | failed
MNITVNDRECSAQVGDRLLDIARANHSHIGYFCGGNAICQTCYVRVLEGAELLSPMSDAEKAMLSDKLIKEGTRMACQTLIEKPGKITVLSEVEAAKRLTLENPLEHHHHHH | not failed
MNIVVQSVYDNTQEFEIIKKWRENYIGINPANGNDFEYWESIREDCSYSFYFYYEDQLVGGVRLTPLGHGITMGERQLDLLRFISVPLETLEVNRLVIEERARGKKIMYESLQYCFHWDSRNTTHSELIALCLPHMVPLYRQVGATMIHDNLQSKEMPEKEYSLISINLKGL | failed
MNIYDQLQAVEDRYEELGELLSDPDVVSDTKRFMELSREEANSRETVAVYREYKQVVQNIADAQEMIKDASGDPELEEMAKEELKNSKVAKEEYEEKLRFLLLPKDPNDDKNIILEIRGAAGGDEAALFAGDLLNMYQKYAENQGWKFEVMEASANGVGGLKEVVAMVSGQSVYSKLKYESGAHRVQRVPVTESQGRVHTSTATVLVMPEVEEVEYEIDPKDLRVDIYHASGAGGQNVNKVATAVRIIHLPTNIKVEMQEERTQQKNRDKAMKIIRARVADHFAQIAQDEQDAERKSTVGTGDRSERIRTYNFPQNRVTDHRIGLTLQKLDSILSGKLDEVIDALILYDQTQKLEELNK | not failed
MNKEVDLSVSCLGKVKELKYDVIILPWGATEPHNLHLPYLTDCILPHDIAVEAAELALSRSGVRCMVMPPVPFGAHNPGQRELPFCIHTRYATQQAILEDIVSSLHVQGFRKLLILSGHGGNNFKGMIRDLAFEYPDFLIAAANWFEVVSPKGYFEAEIDDHAGESETSVMMHYHPELVNLAEAGDGESKPFAIASLNEKVAWVPRHWDKATVDSGVGNPKKATAEKGERYVKPIVEKLAGLFEEMAQHDLYE | not failed
MNKGNTLDSIPTDLILEIFSRLSAKSVGRLRCLSKLWRKGEWFFFSSLQPQNLYEKPFLVVAADFHMKFSEDMSHDIYSYASGLIYFPKMLIENEKSGAIRVICNPITGQYAILPKLITLQAARSFLGFDPIDNQFKVLLVNNDIVNNDMDILTLGIGELMSEKLKFIEAKCFFALDDVQLINYKGKLGGISWNNHEVAPVELSMWVLEDVEKQEWSKNVYILPKNVVPNNWLHAAGVTVEGDIVFSEAVVSNPFDVFYFNPEKNTLQHVETHCNHEVFDDENLVNIFVDHVEDLKFDVMKPTYAATSIRPTEQKHKPTSTETSMSRKDHQVRTIDQPQQDRCTFESINNKFDVMCLLDDD | not failed
MNKKSLLAAVLFAAVMPVSFAQNANVKGAESLSGGSKPNFPEARTLIGEAMKNPETMNDAKTWFVAGQVEERLFTSENLKQTVNQEPDRAMMNDALLRILPFYLKADQLDNMPDQKGKVKPKFTKKIMESLKGNHLYYINAGGYYMEKKDYKKALEAFDQFMQIKELPMFAAVPEISAQDSNSMMVGFFSAVCAYQANDLDRTLEICNKIKDVPYRQNDVYQLIATVYQDKKDTEGYIRMLEEGVQKFPKEAYYLLNLINKYIETGRTEEAISSLERAIADDPQNVQLYDVMAKLYENTQDYDKAEEWLKKGLALDPDNASVCYDLGRVYYNRAADLKGADQVNAETEAKAKEYLQKALPLLEKAYSINPDESWYVLRNVYYNLKMNDKYKELTERHEGK | failed
MNKLEERSQHRKSRFRFLVISTFWRVLLLLKNDAEPLFHLGNIHYAYGHKASAMNYWKEAVSKNREHEKAWHNLVQCAVIQEEWEQAAEGLTILCRNHPTRFEYMSLYTHALKKLGKKEELEEWYLSHINGPHHEWAIEGLGMLYIRTRREIDAFKLLSPFVRKFPNRPVGLKILGISSIRTNQYEAGLTFLEKSLELKEDKEVKSLVDRVKRLKKVRGGNR | failed
MNKLSEKNTTRLASLDILRGFDLFLLVFFQPVFAALVRQLNLPFLNDILYQFDHEVWEGFRFWDLVMPLFLFMTGASMPFSLSKYVGMSGSYWLVYRRILRRVFLLFIFGMIVQGNLLGLDSSHIYLYSNTLQSIAVGYLIAAVIQLHFSFRWQIGITLLLLFIYWIPMTFLGDFTPAGNFAEQVDRCVLGRFRDGVFWNEDGTWSFSPYYNYTWIWSSLTFGVTVMLGAFAGKIMKEGKANRKKVVQTLSVIGVLLVGLAMLWSLQMPIIKRLWTGSMTLLSGGYCFLLMALFYYWIDYKGHSRGLNWLKVYGMNSITAYLLGEVVNFRCIADSVSYGLKQYIGDYYPVWLTFANYLILFFLLRMMYKRGLFLKV | failed
MNKLSIIITYFNNEDYISECIHSLKSQRNQDFDIIVVDDGSTDRSTEILQEALKSYDKDVHFIQLQENTGHAHARNVALEQAHGQYVLFLDADDQLASYAVDYYLQHVNGLDTLIAPIHKFRSQRPQYVDKDKVRLQYASHQKSPNAILRKESACNILFKNAIIKAHQIQFNESLDIYADTSFVLEYLKYAERFVRITNFPFYYRGEVYDPFYGNTLSDQDFTNKFEDHVNSFFDAMQRTNDKRIKNFLIQRMKNEIKSGFDPALRDIKSRYVSLEDALIKIVKALKWNILKDGKVLYNLEILFLSMDDVENAKYVNDLRNKTRLVKNIVLNSKMKERSKYQLSDNEDLVDPNTIVFEAFGGKNYSDSPKYIYEYMQKHYPHLNYIWVFSKPENNNIPGNATKVKKGSQAYYDAYAKAKYWVTNARLPLYLNKKENQMYIQTWHGTPLKRLANDMKVVRMPGTTTANYKKNFYAEASRWDRLVSPNRYSSDIFKSAFWMDEDRIWEIGYPRNDVLVNRQNDTEYIEQIKRDLNLPADKKVIMYAPTWRDDEFVKKGQYLFDLKINLANLQKEIGDEYVILLRMHYLIANALDLHGYDDFAIDVSNYNDISELYLISDALVTDYSSVMFDFGILKRPQFFFAYDIEKYDKGLRGFYMDYMNDLPGEIITDEFKLAEELKQIDQHKVKYQDKIESFYNDFCSIENGKASQYIGDYIYKDIEKKS | failed
MNKMLYGWLLAACCGLPPAFAGDSVDVLAQPALHGPQALRAVLQDVARADARLVAVGERGVVLLSDDNGATWRQATAVPVGVSLTAVQFIDARNGWAVGHAGVVLHSQDGGEHWSVQLDGKRAAALEVQAAEAAADERRLAAAQRLLADGADKPLLALNFTDARNGLVVGAYGVAMRTDDGGRSWQSEIGRLPNGRGLHLYALARQGNQVYIAGEQGLLLRSRDGGEHYEALHGPYDGSYFAATVLPDGRLLLGGLRGSLFASDDGGDSFQALANPTPASINGLRVAGGQLLLANQAGMLLRSGLGAFAAQPVAVSDGLPLTAATTAADGSIVAVGMAGARRLEPSSLSTTTD | failed
MNKPATIDFATATAIQIPAATAQAEALHDLVPGEARDSLLAVHDVLRRELPQGRLAIYEAGGGSCSVLPPELLSRSQVTVVDIDEDQVRNNTYADEAIRGDVQTYRFGGETFDLVICYNVIEHLPNVDAALLNFRDALKRGGMILIGAPNPRSLSGVVTKYSPHWFHVWFYRHIRGIRDAGLPGEPPFPTFFHPLVTLPRLEAFAAANGLDMTYRREVESPRYPEMRRRKPLFAALVDAGAAMLNAVLPRGTDVRRGDYHVILRKS | failed

— a protein production outcome set (Wang et al. 2014)
